# Reference: patent EP4086281A1 (China Immunotech (Beijing) Biotechnology Co., Ltd, dated 2022)
# T1: CD19 expressed by Raji cells (human lymphoma cell line) (human, UniProt P15391 20-556)
# T1 construct: whole, on cells; On intact Raji cells in flow cytometry and co-culture; In the western blot it is the denatured protein of a Raji lysate (band of 95kD); also called CD19 protein in the Raji cells
# T1 sequence (looked up): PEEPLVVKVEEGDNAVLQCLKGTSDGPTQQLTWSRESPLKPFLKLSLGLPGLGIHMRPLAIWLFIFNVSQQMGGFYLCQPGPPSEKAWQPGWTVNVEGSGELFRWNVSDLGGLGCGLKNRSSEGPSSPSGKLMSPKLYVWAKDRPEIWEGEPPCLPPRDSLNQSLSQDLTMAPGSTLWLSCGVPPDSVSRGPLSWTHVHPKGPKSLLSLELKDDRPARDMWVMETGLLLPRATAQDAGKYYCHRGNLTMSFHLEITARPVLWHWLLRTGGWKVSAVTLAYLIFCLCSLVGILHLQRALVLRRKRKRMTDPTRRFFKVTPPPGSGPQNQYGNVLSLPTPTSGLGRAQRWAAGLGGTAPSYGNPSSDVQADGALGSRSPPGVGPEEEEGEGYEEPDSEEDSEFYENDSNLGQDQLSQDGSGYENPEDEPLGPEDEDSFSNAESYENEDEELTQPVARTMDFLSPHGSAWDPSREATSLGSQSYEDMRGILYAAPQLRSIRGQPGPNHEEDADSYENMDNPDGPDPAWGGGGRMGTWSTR
# Target: T1, CD19 expressed by Raji cells (human …)
# Assay: flow cytometry on Raji cells, antibody titrated from 0 to 375 nM, curve fitted with GraphPad
binder,measurement,value
"monoclonal antibody 334 targeting CD19 (hybridoma CGMCC No. 17095) (antibody, V domains shown, it is a hybridoma antibody detected with anti-mouse secondary antibodies) VH: QVQLQQSGAELVRPGASVKLSCKALGFIFTDYEIHWVKQTPVHGLEWIGAFHPGSGGSAYNQKFKGKATLTADKSSSTAYMELSSLTFEDSAVYHCTRQLGPDWGQGTLVTVS VL: not shown",Kd,1.53 nM
